# In patent publication US20220119513A1 (ZOETIS SERVICES, published 2022):
# Residue numbers refer to the chain shown, from its start. Numbers in names are those of the source.
# T1: TGFβ2 (R&D Systems)
# T1 sequence (P61812 303-414, species assumed, looked up): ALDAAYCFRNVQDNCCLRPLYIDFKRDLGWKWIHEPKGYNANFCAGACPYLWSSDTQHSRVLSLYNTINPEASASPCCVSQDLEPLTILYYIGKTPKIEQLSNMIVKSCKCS
# T2: TGFβ3 (R&D Systems) (Homo sapiens (Human), UniProt P10600 301-412, Active TGFβ3 is a disulfide-linked homodimer of this chain; one copy is given.)
# T2 sequence: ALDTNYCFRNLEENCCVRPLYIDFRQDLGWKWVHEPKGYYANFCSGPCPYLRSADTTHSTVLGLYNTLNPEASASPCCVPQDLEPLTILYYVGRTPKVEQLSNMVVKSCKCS
# B1: affinity matured HcLb 260 (antibody, V domains shown)
# VH: SEVQLVQSGAEVKKPGASVKVSCKTSGYTFITYWMNWVRQAPGAGLDWMGQIFPAWGVTNYNEMFEGRVTLTADTSTSTAYMELSSLRAGDIAVYYCARGYGNYALDAMDYWGQGTLVTVSS
# VL: DIVMTQTPPSLSVSPRETASISCRASESVDSYGNSFMHWYLQKPGQSPQLLIYLASNLESGVSDRFSGSGSGTDFTLRISRVEANDTGVYYCQQNNEDPLTFGQ
# notes: full IgG; constant regions not restated
# B2: affinity matured HcLb 189 (antibody, V domains shown)
# VH: EVQLVQSGAEVKKPGASVKVSCKTSGYTFITYWMNWVRQAPGAGLDWMGQIFPAWGSTNYNEMFEGRVTLTADTSTSTAYMELSSLRAGDIAVYYCARGYGNYALDAMDYWGQGTLVTVSS
# VL: DIVMTQTPPSLSVSPRETASISCRASESVDSYGNSFMHWYLQKPGQSPQLLIYLASNLESGVSDRFSGSGSGTDFTLRISRVEANDTGVYYCQQNDEDPLSFGQGTK
# notes: full IgG; also called canHcLb/S55W/D100Y + canHcLb/237ND/242TS
# B3: affinity matured HcLb 91 (antibody, V domains shown)
# VH: B2 VH with Y100D
# VL: B1 VL
# B4: affinity matured HcLb 188 (antibody, V domains shown)
# VH: B2 VH
# VL: B1 VL
# notes: as for B1
# B5: affinity matured HcLb 73 (antibody, V domains shown)
# VH: B2 VH with W55S
# VL: B2 VL with S101T
# B6: affinity matured HcLb 187 (antibody, V domains shown)
# VH: B2 VH with A54G, W55S
# VL: B1 VL
# B7: affinity matured HcLb 237 (antibody, V domains shown)
# VH: B2 VH with S57V
# VL: B2 VL
# notes: full IgG; also called canHcLb/55SW/100DY/57/SV + canHcLb/237ND/242TS
# B8: affinity matured HcLb 190 (antibody, V domains shown)
# VH: B2 VH with A54G, W55S
# VL: B2 VL
# B9: affinity matured HcLb 257 (antibody, V domains shown)
# VH: B2 VH with I30M, T31K
# VL: B2 VL
# notes: full IgG; also called canHcLb/55SW/100DY/30IM/31TK + canHcLb/237ND/242TS
# B10: affinity matured HcLb 259 (antibody, V domains shown)
# VH: B2 VH with S57M
# VL: B1 VL
# notes: as for B1
# B11: affinity matured HcLb 233 (antibody, V domains shown)
# VH: B2 VH with S57M
# VL: B2 VL
# notes: full IgG; also called canHcLb/55SW/100DY/57/SM + canHcLb/237ND/242TS
# B12: affinity matured HcLb 217 (antibody, V domains shown)
# VH: B2 VH with I30M
# VL: B2 VL
# notes: full IgG; also called canHcLb/S55W/D100Y/I30/M + canHcLb/237ND/242TS
# B13: affinity matured HcLb 262 (antibody, V domains shown)
# VH: B2 VH with T31K
# VL: B1 VL
# notes: as for B1
# B14: affinity matured HcLb 239 (antibody, V domains shown)
# VH: B2 VH with T31K
# VL: B2 VL
# notes: full IgG; also called canHcLb/55SW/100DY/31/TK + canHcLb/237ND/242TS
# B15: affinity matured HcLb 258 (antibody, V domains shown)
# VH: B2 VH with I30M, T31K
# VL: B1 VL
# notes: as for B1
# B16: affinity matured HcLb 261 (antibody, V domains shown)
# VH: B2 VH with I30M
# VL: B1 VL
# notes: as for B1
# B17: affinity matured HcLb 263 (antibody, V domains shown)
# VH: B2 VH with T28I
# VL: B1 VL
# notes: as for B1
# B18: Can-SL501-VH3 D108K / Can-SL501-VL2 (antibody, V domains shown)
# VH: EVQLVESGGDLVKPGGSLRLSCVASGFTFSSYGMHWVRQAPGKELEWVAVISYDGSIKYYADAVKGRFTISRDNAKNTLYLQMNSLRAEDTAVYYCARTGEYSGYDTKPQYSWGQGTTVTVSS
# VL: EIVMTQSPGSLAGSAGESVSINCRASQGIGDDLGWYQQKPGERPKLLIYGTSTLQSGVPARFSSSGSGTDFTLTINNLQAEDVGDYYCLQDSNYPLTFGAGTK
# B19: Can-SL501-VH3 Y111I / Can-SL501-VL2 (antibody, V domains shown)
# VH: B18 VH with K108D, Y111I
# VL: B18 VL
# B20: Can-SL501-VH3 Q110K / Can-SL501-VL2 (antibody, V domains shown)
# VH: B18 VH with K108D, Q110K
# VL: B18 VL
# B21: Can-SL501-VH3 D108R / Can-SL501-VL2 (antibody, V domains shown)
# VH: B18 VH with K108R
# VL: B18 VL
# B22: Can-SL501-VH3 Y111F / Can-SL501-VL2 (antibody, V domains shown)
# VH: B18 VH with K108D, Y111F
# VL: B18 VL
# B23: Can-SL501-VH3 Q110E / Can-SL501-VL2 (antibody, V domains shown)
# VH: B18 VH with K108D, Q110E
# VL: B18 VL
# B24: Can-SL501-VH3 P109T / Can-SL501-VL2 (antibody, V domains shown)
# VH: B18 VH with K108D, P109T
# VL: B18 VL
# B25: Can-SL501-VH3 Q110D / Can-SL501-VL2 (antibody, V domains shown)
# VH: B18 VH with K108D, Q110D
# VL: B18 VL
# B26: Can-SL501-VH3 Y111L / Can-SL501-VL2 (antibody, V domains shown)
# VH: B18 VH with K108D, Y111L
# VL: B18 VL
# B27: Can-SL501-VH3 Q110N / Can-SL501-VL2 (antibody, V domains shown)
# VH: B18 VH with K108D, Q110N
# VL: B18 VL
# B28: Can-SL501-VH3 P109A / Can-SL501-VL2 (antibody, V domains shown)
# VH: B18 VH with K108D, P109A
# VL: B18 VL
# Target: TGFβ1 (R&D Systems)
# Test: cell-based or functional assay
row,Binder,"pSmad-3, IC50"
1,B1,1.33 nM
2,B2,2.21 nM
3,B3,2.16 nM
4,B4,2.73 nM
5,B5,1.17 nM
6,B6,0.82 nM
7,B7,0.76 nM
8,B8,3.26 nM
9,B9,0.7 nM
10,B10,0.99 nM
11,B11,0.71 nM
12,B12,0.78 nM
13,B13,3.16 nM
14,B14,1.43 nM
15,B15,0.61 nM
16,B16,0.69 nM
17,B17,1.41 nM

# Target: T1, TGFβ2 (R&D Systems)
# Test: cell-based or functional assay
row,Binder,"pSmad-3, IC50"
1,B1,1.64 nM
2,B2,3.29 nM
3,B3,4.43 nM
4,B4,2.29 nM
5,B5,8.42 nM
6,B6,2.08 nM
7,B7,1.6 nM
8,B8,2.77 nM
9,B9,2.02 nM
10,B10,1.37 nM
11,B11,1.68 nM
12,B12,1.71 nM
13,B13,1.85 nM
14,B14,5.42 nM
15,B15,0.79 nM
16,B16,1.15 nM
17,B17,2.1 nM

# Target: T2, TGFβ3 (R&D Systems)
# Test: cell-based or functional assay
row,Binder,"pSmad-3, IC50"
1,B1,1.24 nM
2,B2,2.13 nM
3,B3,2.31 nM
4,B4,1.46 nM
5,B5,1.24 nM
6,B6,8.61 nM
7,B7,1.05 nM
8,B8,7.79 nM
9,B9,1.6 nM
10,B10,1.48 nM
11,B11,1.33 nM
12,B12,1.44 nM
13,B13,1.37 nM
14,B14,1.54 nM
15,B15,1.09 nM
16,B16,1.2 nM
17,B17,1.03 nM

# Target: TGFβ1 (R&D Systems)
# Test: cell-based or functional assay
# Remark: another data set of the same source
row,Binder,"CMVIC pSmad-3, IC50"
1,B18,10.9 nM
2,B19,50.2 nM
3,B20,30.5 nM
4,B21,25.2 nM
5,B22,43.3 nM
6,B23,6.65 nM
7,B24,30 nM
8,B25,4.83 nM
9,B26,32.6 nM
10,B27,8.95 nM
11,B28,20.8 nM

# Target: T3, TGFβ1 (R&D Systems)
# T3 construct: also called TGFB1
# Test: single point SPR
# T3 sequence (P01137 279-390): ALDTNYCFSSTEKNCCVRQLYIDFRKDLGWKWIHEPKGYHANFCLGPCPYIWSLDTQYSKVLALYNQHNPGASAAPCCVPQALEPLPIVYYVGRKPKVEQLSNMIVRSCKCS
row,Binder,Kd
1,B18,0.283 nM
2,B19,0.562 nM
3,B20,5.11 nM
4,B21,0.759 nM
5,B22,8.04 nM
6,B23,13.5 nM
7,B24,0.752 nM
8,B25,8.01 nM
9,B26,1.11 nM
10,B27,5.64 nM
11,B28,1.1 nM

# Target: T3, TGFβ1 (R&D Systems)
# Test: SPR full titration
row,Binder,Kd
1,B18,0.0346 nM
2,B19,0.0308 nM
3,B20,0.111 nM
4,B21,0.0651 nM
5,B22,0.065 nM
6,B23,0.0657 nM
7,B24,0.0836 nM
8,B25,0.0503 nM
9,B27,0.0809 nM
10,B28,0.135 nM

# Target: T3, TGFβ1 (R&D Systems)
# Test: SPR full titration
# Remark: another data set of the same source
row,Binder,Kd
1,B1,3.79 nM
2,B2,2.65 nM
3,B4,3.96 nM
4,B7,2.27 nM
5,B9,2.03 nM
6,B10,3.05 nM
7,B11,2.03 nM
8,B12,2.58 nM
9,B13,6.18 nM
10,B14,3.53 nM
11,B15,3.81 nM
12,B16,6.18 nM
13,B17,3.76 nM

# Target: T1, TGFβ2 (R&D Systems)
# Test: SPR full titration
row,Binder,Kd
1,B1,4.36 nM
2,B2,0.922 nM
3,B4,0.937 nM
4,B7,4.07 nM
5,B9,4.72 nM
6,B10,3.75 nM
7,B11,3.98 nM
8,B12,3.91 nM
9,B13,6.73 nM
10,B14,6.44 nM
11,B15,4.4 nM
12,B16,3.92 nM
13,B17,2.91 nM

# Target: T2, TGFβ3 (R&D Systems)
# Test: SPR full titration
row,Binder,Kd
1,B1,0.79 nM
2,B2,0.226 nM
3,B4,0.417 nM
4,B7,0.476 nM
5,B9,0.649 nM
6,B10,0.78 nM
7,B11,0.457 nM
8,B12,0.676 nM
9,B13,0.856 nM
10,B14,0.431 nM
11,B15,8.6 nM
12,B16,0.87 nM
13,B17,0.37 nM
